According to patent US20220267422A1 (PHAROSGEN, published 2022):
Changes are numbered by the printed parent chain.

T1: mPRND
T1 construct: also called Mouse PRND; mouse doppel, recombinant, C-terminal His tag
T1 single chain: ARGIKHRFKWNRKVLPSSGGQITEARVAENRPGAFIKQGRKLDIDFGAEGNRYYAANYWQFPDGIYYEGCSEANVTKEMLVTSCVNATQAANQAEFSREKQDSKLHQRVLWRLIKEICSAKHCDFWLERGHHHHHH

B1: murine monoclonal antibody produced by hybridoma cell line clone 2B6 (antibody, V domains shown)
VH: QVQLQQSGAELVRPGVSVKLSCKFSGFTFTDYAMHWVRQSHAKSLAWIGVISSYYGDASYNQKFTGKATMTVDKSSSTAYMELARLTSEDSAIYYCARRLRGAMDYWGQGTSVTVSS
VL: DIVMTQSQKFMSTSVGDRVSVTCKASQNVDANVAWYQQKPGQSPKALIYSASYRYSGVPYRFTGSGSGTDFTLTISNVQSADLAEYFCQQYNSYPFTFGSGTKLELK
notes: also called hPrnd #2B6; KCLRF-BP-00490
B2: murine monoclonal antibody produced by hybridoma cell line clone 7A11 (antibody, V domains shown)
VH: QVQLQQPGAELVRPGASVKLSCKASGYTFTSYWINWVKQRPGQGLEWIGNIYPSDSYTNYNQKFKDKATLTVDKSSSTAYMQLSSPTSEDSAVYYCTRSMITWGQGTTLTVSS
VL: DVLMTQTPLSLPVSLGDQASISCRSSQSIVHSNGNTYLEWYLQKPGQSPKVLIYKVSNRFSGVPDRFSGSGSGTDFTLKINRVEAEDLGVYYCFQGSHVPLTFGAGTKLELK
notes: also called hPrnd #7A11; KCLRF-BP-00498
B3: murine monoclonal antibody produced by hybridoma cell line clone 7G3 (antibody, V domains shown)
VH: EIQLQQTGPELVKPGASVKISCKASGYSFTDYIMLWVKQSHGKSLEWIGNINPYYGSTSYNLKFKGKATLTVDKSSSTAYMQLNSLTSEDSAVYYCARRNYYGNYDAMDYWGQGTSVTVSS
VL: QIVLTQSPAIMSASLGERVTMTCTASSSVSSSYLHWYQQKPGSSPKLWIYSTSNLASGVPARFSGSGSGTSYSLTISSMEAEDTATYYCHQYHRSPLTFGAGTKLELK
notes: also called hPrnd #7G3; KCLRF-BP-00500
B4: murine monoclonal antibody produced by hybridoma cell line clone 4H7 (antibody, V domains shown)
VH: DVQLQESGPDLVKPSQSLSLTCTVTGYSITSGYSWHWIRQFPGNKLEWMGYIHYSGNTNYNPSLKSRISITRDTSKNQFFLQLNSVTTEDTATYSCAMRTYYYGPLDYWGQGTTLTVSS
VL: not shown
notes: also called hPrnd #4H7; KCLRF-BP-00496
B5: murine monoclonal antibody produced by hybridoma cell line clone 2E9 (antibody, V domains shown)
VH: not shown
VL: DVQMTQTTSSLSASLGDRVTISCSASRGISNYLNWYQQKPDGTVKLLIYYTSSLHSGVPPRFSGSGSGTDYSLTISNLEPEDIATYYCQQYSKLPSTFGGGTKVEIK
notes: also called hPrnd #2E9; KCLRF-BP-00493
B6: Human monoclonal antibody A12 (antibody, V domains shown)
VH: not shown
VL: DIQMTQSPSSLSASVGDRVTITCRASQSIGSYLNWYQQKPGKAPKLLIYAASTLQSGVPSRFSGSGSGTDFTLTISSLQPEDFATYYCQQSYSFPWTFGQGTKVEIKR
B7: Human monoclonal antibody B2 (antibody, V domains shown)
VH: not shown
VL: B6 VL with G30S, S31N, T53R
B8: murine monoclonal antibody produced by hybridoma cell line clone 2C10 (antibody, V domains shown)
VH: EVQLQESGPSLVKPSQTLSLTCSVTGDSITSGYWNWIRKFPGNKLEYMGYIRYSGSAYYNPSLKSRISITRDTSKNQYYLQLNSVTTEDTATYYCARYPYYGSYWYFDVWGAGTTVTVSS
VL: DVQITQSPSYLAASPGETITLNCRASKSISKYLAWYQEKPGKTNKLLIYSGSTLQSGIPSRFSGSGSGSDFTLTISSLEPEDFAMYYCQQHSEYPWTFGGGTKLEIK
notes: also called hPrnd #2C10; KCLRF-BP-00491
B9: Human monoclonal antibody E9 (antibody, human IgG1, kappa, V domains shown)
VH: QVQLVQSGAEVKKPGSSVKVSCKASGGTFSSYYMHWVRQAPGQGLEWMGRISPGGGGTIYAQKFQGRVTITADESTSTAYMELSSLRSEDTAVYYCARAQSEGLSYYFDVWGQGTLVTVSS
VL: B6 VL with G30R, S31N, T53N, Y92S, W96L

Key:
mPRND [1] = target: T1, mPRND; experiment: ELISA, […], antibody 0-100 nM; […] (nM)'
[2] = target: doppel (Prnd) recombinant protein immobilized on the SPR sensor chip; experiment: SPR, BIAcore T100, recombinant protein immobilized on chip
Procedure: Affinity measurements of anti-doppel monoclonal antibodies produced by the clones described herein with Prnp and Prnd (doppel) were performed by the surface plasmon resonance on a BIAcore T100 (GE Healthcare). Using the standard EDAC-NHS coupling method, recombinant proteins were immobilized at a density of 4000-7000 onto a sensor chip (GE Healthcare). Measurements were performed at a flow rate of 20 μL/min, and 50 mM NaOH was used to regenerate the chip surface after each cycle of analysis. Each concentration was analyzed in duplicate. Kinetic analysis of the data obtained was performed using BIAcore T100 evaluation software (GE Healthcare).

[3] = target: T2, Doppel on HCT116 cells, HUVEC and Dpl k/d HUVEC (human, UniProt Q9UKY0); experiment: flow cytometry, '% Doppel Ab binding cell' on HCT116, HUVEC and doppel knock-down HUVEC (24h, 48h); no control antibody and no concentration shown
T2 construct: endogenous, on the surface of HCT116 cells, HUVEC and doppel knock-down HUVEC; also called PRND

[4] = target: T3, human doppel on human tumor endothelial cells (human, UniProt Q9UKY0 26-152); experiment: flow cytometry on HCTEC (human colonic tumor endothelial cells), fluorescent secondary antibody; no control bar and no antibody concentration shown
T3 construct: whole, on cells; also called PRND; hPRND

mPRND [5] = target: T1, mPRND; experiment: ELISA, […], antibody 0-100 nM; […] (nM)'; […]
mPRND [6] = target: T1, mPRND; experiment: ELISA, […], antibody 0-100 nM; […] (nM)'
[7] = target: T3, human doppel on human tumor endothelial …; experiment: flow cytometry on human tumor endothelial cells, cancer cells and doppel knock-down cells

| Binder | Kd (mPRND [1]) | Kd [2] | binding result [3] | binding result [4] | Kd (mPRND [5]) | Kd (mPRND [6]) | binding result [7] |
| --- | --- | --- | --- | --- | --- | --- | --- |
| B1 | 6.52 nM | 0.292 nM | binds | binds | – | – | – |
| B2 | 0.876 nM | 0.253 nM | – | – | – | – | – |
| B3 | – | 10.6 nM | binds | binds | 25.9 nM | – | – |
| B4 | – | 0.0287 nM | – | binds | – | 0.868 nM | – |
| B5 | – | 4.05 nM | – | binds | – | – | – |
| B6 | – | 9.2 nM | binds | – | – | – | binds |
| B7 | – | 7.99 nM | binds | – | – | – | binds |
| B8 | – | 8.76 nM | binds | – | – | – | binds |
| B9 | – | 4.41 nM | – | – | – | – | – |
